By Kd is commonly meant the concentration at which binding is half-saturated.

Data set [1] concerns the target TorS sensor domain (Escherichia coli) (UniProt P39453). To be noted: cited from earlier work.
The data set “cross-linking” deals with the molecule itself. Briefly: cross-linking.
The data set “native gel or EMSA” deals with the molecule itself. Briefly: native gel or EMSA.

Turning to “TorS sensor domain (from UniProt P39453)”, the Kd in data set [1] was 49.6 µM.

B1: N-terminal Strep-tagged CusS(39–187) wild-type, periplasmic sensor domain of the histidine kinase CusS (domain or fragment, E. coli)
chain: VKVHFAEQDINDLKEISATLERVLNHPDETQARRLMTLEDIVSGYSNVLISLADSQGKTVYHSPGAPDIREFTRDAIPDKDAQGGEVYLLSGPTMMMPGHGHGHMEHSNWRMINLPVGPLVDGKPIYTLYIALSIDFHLHYINDLMNKLEGSA
On to B1, for which the binding result in the data set “cross-linking” is “binds”.

B2: N-terminal Strep-tagged CusS(39–187)-IIA (M133I/M135I/H145A), internal metal binding site eliminated (domain or fragment, E. coli)
chain: VKVHFAEQDINDLKEISATLERVLNHPDETQARRLMTLEDIVSGYSNVLISLADSQGKTVYHSPGAPDIREFTRDAIPDKDAQGGEVYLLSGPTIMIPGHGHGHMEASNWRMINLPVGPLVDGKPIYTLYIALSIDFHLHYINDLMNKLEGSA
B2: the binding result in “cross-linking” is “binds”.

B3: CusScp-long, cytoplasmic domain of CusS with C-terminal Strep-Myc-Strep-FLAG-HA-Strep tags, wild-type (domain or fragment, E. coli, UniProt P77485 208-480, looked up)
chain: KGHAPIRSVSRQIQNITSKDLDVRLDPQTVPIELEQLVLSFNHMIERIEDVFTRQSNFSADIAHEIRTPITNLITQTEIALSQSRSQKELEDVLYSNLEELTRMAKMVSDMLFLAQADNNQLIPEKKMLNLADEVGKVFDFFEALAEDRGVELRFVGDKCQVAGDPLMLRRALSNLLSNALRYTPTGETIVVRCQTVDHLVQVIVENPGTPIAPEHLPRLFDRFYRVDPSRQRKGEGSGIGLAIVKSIVVAHKGTVAVTSDARGTRFVITLPA
With B3, in the data set “native gel or EMSA”, the binding result is reported as “binds”.

B4: CusScp-short, cytoplasmic domain of CusS (amino acids 208–480) with C-terminal 6xHis tag, wild-type (domain or fragment, E. coli)
chain: MASKGHAPIRSVSRQIQNITSKDLDVRLDPQTVPIELEQLVLSFNHMIERIEDVFTRQSNFSADIAHEIRTPITNLITQTEIALSQSRSQKELEDVLYSNLEELTRMAKMVSDMLFLAQADNNQLIPEKKMLNLADEVGKVFDFFEALAEDRGVELRFVGDKCQVAGDPLMLRRALSNLLSNALRYTPTGETIVVRCQTVDHLVQVIVENPGTPIAPEHLPRLFDRFYRVDPSRQRKGEGSGIGLAIVKSIVVAHKGTVAVTSDARGTRFVITLPALE
B4: in “native gel or EMSA”, the binding result is “binds”.

The record behind these values is paper PMC6506263 (The Biochemical journal, 2019).
